# From patent US8084276B2, “Method for identifying a subject at risk of developing heart failure by determining the level of galectin-3 or thrombospondin-2” (Universiteit Maastricht, priority 2003, dated 2011)
# B1: galectin-3: murine recombinant galectin-3 added exogenously to rat cardiac fibroblasts (protein, UniProt P16110 2-264, looked up)
# Galectin-3: ADSFSLNDALAGSGNPNPQGYPGAWGNQPGAGGYPGAAYPGAYPGQAPPGAYPGQAPPGAYPGQAPPSAYPGPTAPGAYPGPTAPGAYPGQPAPGAFPGQPGAPGAYPQCSGGYPAAGPYGVPAGPLTVPYDLPLPGGVMPRMLITIMGTVKPNANRIVLDFRRGNDVAFHFNPRFNENNRRVIVCNTKQDNNWGKEERQSAFPFESGKPFKIQVLVEADHFKVAVNDAHLLQYNHRMKNLREISQLGISGDITLTSANHAMI
# How the values were obtained:
# Ren-2 rats = test: Hemodynamics, hypertrophy and fibrosis in Ren-2 transgenic rats with and without ARB; type: in vivo, rat; conditions: 0.05 mg/kg/day candesartan from 7-13 weeks of age
# Procedure: Homozygous Ren-2 rats were obtained from the Max-Delbrück-Zentrum für Molekulare Medizin, Berlin, Germany. 30 male Ren-2 rats on a Sprague Dawley (SD) background and 9 age-matched SD rats as controls were studied. Of 30 Ren-2 rats, 8 were sacrificed at 10-weeks of age and 8 were treated with 0.05 mg/kg/day of candesartan, an angiotensin II receptor type I blocker (ARB), from 7-13 weeks of age. Of the remaining 14 untreated Ren-2 rats, 6 were sacrificed at 13 weeks upon the development of clinical signs of heart failure and designated as HF-S rats. The remaining 8 Ren-2 rats were closely monitored and were sacrificed at 17 weeks when clinical signs of failure had not yet appeared. These rats were designated as HF-R rats. Hemodynamic parameters were determined before sacrifice and heart, lung and body weight were measured after the sacrifice. The procedure for care and treatment of animals was approved by the institutional animal care committee. Homozygous Ren-2 rats were obtained from the Max-Delbrück-Zentrum für Molekulare Medizin, Berlin, Germany. We studied 16 male Ren-2 rats and 8 age-matched controls from the non-transgenic background, Sprague Dawley (SD) rats. […] The remaining 4 Ren-2 rats were monitored and were sacrificed at 17 weeks when signs of clinical failure had not appeared. […] Heart, lung and body weight were measured after the sacrifice. […]
# cardiac fibroblasts = test: Secreted collagen, [3H]proline incorporation assay; type: cell-based, rat
# Procedure: (§1) Rat cardiac fibroblasts were isolated from 2-day-old neonatal Sprague-Dawley rats, as described previously (Pokharel et al., Hypertension, 40: 155-161, 2002). Cells were cultured in Dulbecco's modification of eagle's medium (DMEM) supplemented with 10% foetal bovine serum (FBS), along with 1% L-glutamate, 50 U/mL penicillin, and 0.1 g/L streptomycin, and were incubated at 37° C. in a humidified 5% CO2 atmosphere. Twenty-four hours after seeding, cells were made quiescent by incubation with media containing 0.5% FBS for 24 hours. Cells were then treated with murine recombinant galectin-3 (control, 10 μg/ml and 30 μg/ml) for 24 hours. The number of dividing cells was determined by radio-labelled methyl-[^3H] thymidine incorporation (0.5 μCi per well) assay. Radioactivity was measured in the mixture of fibroblasts and scintillation liquid using LKB-Wallace beta counter (FSA Laboratory Supplies, Loughborough, UK).
# Secreted collagen was measured using a [^3H]proline incorporation assay. Briefly, cardiac fibroblasts were seeded in 6-well plates at 90-100% confluency. During the final 24 hours of incubation, 15 μCi/ml of L-[^3H]proline was added. Incorporated [^3H] proline from the condition medium was precipitated with 10% trichloroacetic acid (TCA) and counted with the scintillation counter. Statistical Analyses
# Rat cardiac fibroblasts = test: Cardiac fibroblast proliferation, methyl-[3H]thymidine incorporation; type: cell-based; conditions: 24 hours, control 145±4.8, p<0.01
# Procedure: as §1
molecule,measurement,setting,value
CCOc1nc2cccc(C(=O)O)c2n1Cc1ccc(-c2ccccc2-c2nnn[nH]2)cc1 [candesartan],dP/dtmax,Ren-2 rats; evaluated at 13 weeks,8400±202 mmHg/s
same,LV weight/body weight %,Ren-2 rats; evaluated in sacrificed animals at 13 weeks,2.52±0.36%
B1,proline incorporation (collagen production),"cardiac fibroblasts; galectin-3 at 10 μg/ml, not significant, p=0.13",992±72 cpm
same,increase in proline incorporation,cardiac fibroblasts; galectin-3 at 30 μg/ml vs control,approximately 66%
same,proline incorporation (collagen production),"cardiac fibroblasts; galectin-3 at 30 μg/ml, control 707±52.8 cpm, p<0.05",1066±56 cpm
same,cardiac fibroblast proliferation (thymidine incorporation),Rat cardiac fibroblasts; galectin-3 at 10 μg/ml,309±4.8 cpm
same,cardiac fibroblast proliferation (thymidine incorporation),Rat cardiac fibroblasts; galectin-3 at 30 μg/ml,347±17.5 cpm
